The test system of series [1] is HeLa Kyoto. In words: solubility in G1/S (NP-40 vs SDS abundance) (log2 ratio); higher = more soluble. Particulars: cell cycle stage: G1/S.
Series [2] relates to HeLa Kyoto. In words: thermal stability score vs G1/S (z-score of summed log2 fold changes over temperatures); higher = more thermally stable than in G1/S.
Series [3] has as its system HeLa Kyoto. Put plainly: melting temperature (median over replicates), in situ; higher = more thermally stable.
Series [4] has as its system HeLa Kyoto. In words: solubility change mitosis vs G1/S (difference of NP-40 vs SDS log2 ratios) (log2 ratio difference); higher = more soluble in mitosis.
The mark [5] stands for this setting: cell cycle stage: early G1 (4.5 h after nocodazole release).
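Throughout, for melting temperature (median over replicates), in situ: HeLa Kyoto cells synchronized by double thymidine or nocodazole block, proteins quantified by TMT10plex mass spectrometry, three independent biological replicates.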
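Throughout, for solubility change mitosis vs G1/S (difference of NP-40 vs SDS log2 ratios): synchronized HeLa Kyoto cells (double thymidine block for G1/S, nocodazole release for mitosis), protein amounts in NP-40 versus SDS lysates quantified by mass spectrometry, three biological replicates.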
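Throughout, for solubility in G1/S (NP-40 vs SDS abundance): HeLa Kyoto cells arrested at G1/S by double thymidine block, proteins quantified by TMT10plex mass spectrometry in mild NP-40 versus SDS extracts, three biological replicates.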
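Throughout, for thermal stability score vs G1/S (z-score of summed log2 fold changes over temperatures): synchronized HeLa Kyoto cells, proteins quantified by TMT10plex mass spectrometry, three biological replicates, mitosis taken 0.5 h after nocodazole release, G1/S directly after double thymidine block.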

Consider “MAQVAMSTLPVEDEESSESRMVVTFLMSALESMCKELAKSKAEVACIAVYETDVFVVGTERGRAFVNTRKDFQKDFVKYCVEEEEKAAEMHKMKSTTQANRMSVDAVEIETLRKTVEDYFCFCYGKALGKSTVVPVPYEKMLRDQSAVVVQGLPEGVAFKHPENYDLATLKWILENKAGISFIIKRPFLEPKKHVGGRVMVTDADRSILSPGGSCGPIKVKTEPTEDSGISLEMAAVTVKEESEDPDYYQYNIQAGPSETDDVDEKQPLSKPLQGSHHSSEGNEGTEMEVPAEDSTQHVPSETSEDPEVEVTIEDDDYSPPSKRPKANELPQPPVPEPANAGKRKVREFNFEKWNARITDLRKQVEELFERKYAQAIKAKGPVTIPYPLFQSHVEDLYVEGLPEGIPFRRPSTYGIPRLERILLAKERIRFVIKKHELLNSTREDLQLDKPASGVKEEWYARITKLRKMVDQLFCKKFAEALGSTEAKAVPYQKFEAHPNDLYVEGLPENIPFRSPSWYGIPRLEKIIQVGNRIKFVIKRPELLTHSTTEVTQPRTNTPVKEDWNVRITKLRKQVEEIFNLKFAQALGLTEAVKVPYPVFESNPEFLYVEGLPEGIPFRSPTWFGIPRLERIVRGSNKIKFVVKKPELVISYLPPGMASKINTKALQSPKRPRSPGSNSKVPEIEVTVEGPNNNNPQTSAVRTPTQTNGSNVPFKPRGREFSFEAWNAKITDLKQKVENLFNEKCGEALGLKQAVKVPFALFESFPEDFYVEGLPEGVPFRRPSTFGIPRLEKILRNKAKIKFIIKKPEMFETAIKESTSSKSPPRKINSSPNVNTTASGVEDLNIIQVTIPDDDNERLSKVEKARQLREQVNDLFSRKFGEAIGMGFPVKVPYRKITINPGCVVVDGMPPGVSFKAPSYLEISSMRRILDSAEFIKFTVIRPFPGLVINNQLVDQSESEGPVIQESAEPSQLEVPATEEIKETDGSSQIKQEPDPTW [GTF2I]”, for which the “solubility in G1/S (log2)” value with HeLa Kyoto [1] turned out to be 0.0586. Also, the thermal stability score in the series with HeLa Kyoto [2] (setting [5]) came out at 6.54; with HeLa Kyoto [2] (cell cycle stage: mitosis), 16.3. In addition, the melting temperature amounted to 45.4 °C in the series on HeLa Kyoto [3] (cell cycle stage: G1/S) and 48.5 °C in the series with HeLa Kyoto [3] (cell cycle stage: mitosis). In the series on HeLa Kyoto [4], the “solubility change mitosis (log2)” value amounted to 0.0472.
As to “MGRRALLLLLLSFLAPWATIALRPALRALGSLHLPTNPTSLPAVAKNYSVLYFQQKVDHFGFNTVKTFNQRYLVADKYWKKNGGSILFYTGNEGDIIWFCNNTGFMWDVAEELKAMLVFAEHRYYGESLPFGDNSFKDSRHLNFLTSEQALADFAELIKHLKRTIPGAENQPVIAIGGSYGGMLAAWFRMKYPHMVVGALAASAPIWQFEDLVPCGVFMKIVTTDFRKSGPHCSESIHRSWDAINRLSNTGSGLQWLTGALHLCSPLTSQDIQHLKDWISETWVNLAMVDYPYASNFLQPLPAWPIKVVCQYLKNPNVSDSLLLQNIFQALNVYYNYSGQVKCLNISETATSSLGTLGWSYQACTEVVMPFCTNGVDDMFEPHSWNLKELSDDCFQQWGVRPRPSWITTMYGGKNISSHTNIVFSNGELDPWSGGGVTKDITDTLVAVTISEGAHHLDLRTKNALDPMSVLLARSLEVRHMKNWIRDFYDSAGKQH [PRCP]”, the “solubility in G1/S (log2)” value in the series on HeLa Kyoto [1] is 0.0413. Besides, the values for the thermal stability score in the series with HeLa Kyoto [2] (setting [5]) and with HeLa Kyoto [2] (cell cycle stage: mitosis) were -0.942 and -2.23, respectively. Moreover, the melting temperature amounted to 58.5 °C in the series on HeLa Kyoto [3] (cell cycle stage: G1/S) and 54.1 °C in the series with HeLa Kyoto [3] (cell cycle stage: mitosis). Moreover, the “solubility change mitosis (log2)” value in the series with HeLa Kyoto [4] was -0.246.
As for “MKNQDKKNGAAKQSNPKSSPGQPEAGPEGAQERPSQAAPAVEAEGPGSSQAPRKPEGAQARTAQSGALRDVSEELSRQLEDILSTYCVDNNQGGPGEDGAQGEPAEPEDAEKSRTYVARNGEPEPTPVVNGEKEPSKGDPNTEEIRQSDEVGDRDHRRPQEKKKAKGLGKEITLLMQTLNTLSTPEEKLAALCKKYAELLEEHRNSQKQMKLLQKKQSQLVQEKDHLRGEHSKAVLARSKLESLCRELQRHNRSLKEEGVQRAREEEEKRKEVTSHFQVTLNDIQLQMEQHNERNSKLRQENMELAERLKKLIEQYELREEHIDKVFKHKDLQQQLVDAKLQQAQEMLKEAEERHQREKDFLLKEAVESQRMCELMKQQETHLKQQLALYTEKFEEFQNTLSKSSEVFTTFKQEMEKMTKKIKKLEKETTMYRSRWESSNKALLEMAEEKTVRDKELEGLQVKIQRLEKLCRALQTERNDLNKRVQDLSAGGQGSLTDSGPERRPEGPGAQAPSSPRVTEAPCYPGAPSTEASGQTGPQEPTSARA [TXLNA]”, the “solubility in G1/S (log2)” value in the series on HeLa Kyoto [1] worked out at 0.802. Also, the thermal stability score with HeLa Kyoto [2] (setting [5]) is 0.411; with HeLa Kyoto [2] (cell cycle stage: mitosis) it was -0.854. The melting temperature amounted to 52.5 °C in the series with HeLa Kyoto [3] (cell cycle stage: G1/S) and 52.6 °C in the series with HeLa Kyoto [3] (cell cycle stage: mitosis). Also, in the series with HeLa Kyoto [4], the “solubility change mitosis (log2)” value was 0.248.
With “MSSASGLRRGHPAGGEENMTETDAFYKREMFDPAEKYKMDHRRRGIALIFNHERFFWHLTLPERRGTCADRDNLTRRFSDLGFEVKCFNDLKAEELLLKIHEVSTVSHADADCFVCVFLSHGEGNHIYAYDAKIEIQTLTGLFKGDKCHSLVGKPKIFIIQACRGNQHDVPVIPLDVVDNQTEKLDTNITEVDAASVYTLPAGADFLMCYSVAEGYYSHRETVNGSWYIQDLCEMLGKYGSSLEFTELLTLVNRKVSQRRVDFCKDPSAIGKKQVPCFASMLTKKLHFFPKSN [CASP6]”, the “solubility in G1/S (log2)” value with HeLa Kyoto [1] was -0.374. The thermal stability score in the series on HeLa Kyoto [2] (setting [5]) is -0.607; with HeLa Kyoto [2] (cell cycle stage: mitosis), -1.03. Further, the values for the melting temperature in the series on HeLa Kyoto [3] (cell cycle stage: G1/S) and in the series with HeLa Kyoto [3] (cell cycle stage: mitosis) were 54.4 °C and 56.6 °C, respectively. Further, the “solubility change mitosis (log2)” value with HeLa Kyoto [4] was -0.176.
For “MLRRRGSPGMGVHVGAALGALWFCLTGALEVQVPEDPVVALVGTDATLCCSFSPEPGFSLAQLNLIWQLTDTKQLVHSFAEGQDQGSAYANRTALFPDLLAQGNASLRLQRVRVADEGSFTCFVSIRDFGSAAVSLQVAAPYSKPSMTLEPNKDLRPGDTVTITCSSYQGYPEAEVFWQDGQGVPLTGNVTTSQMANEQGLFDVHSILRVVLGANGTYSCLVRNPVLQQDAHSSVTITPQRSPTGAVEVQVPEDPVVALVGTDATLRCSFSPEPGFSLAQLNLIWQLTDTKQLVHSFTEGRDQGSAYANRTALFPDLLAQGNASLRLQRVRVADEGSFTCFVSIRDFGSAAVSLQVAAPYSKPSMTLEPNKDLRPGDTVTITCSSYRGYPEAEVFWQDGQGVPLTGNVTTSQMANEQGLFDVHSVLRVVLGANGTYSCLVRNPVLQQDAHGSVTITGQPMTFPPEALWVTVGLSVCLIALLVALAFVCWRKIKQSCEEENAGAEDQDGEGEGSKTALQPLKHSDSKEDDGQEIA [CD276]”, the “solubility in G1/S (log2)” value in the series on HeLa Kyoto [1] was 0.244. For the same sequence, the figures for the thermal stability score in the series with HeLa Kyoto [2] (setting [5]) and in the series with HeLa Kyoto [2] (cell cycle stage: mitosis) were -2.08 and -3.76, respectively. In addition, the melting temperature is 59 °C with HeLa Kyoto [3] (cell cycle stage: G1/S) and 57.1 °C with HeLa Kyoto [3] (cell cycle stage: mitosis). Further, in the series on HeLa Kyoto [4], the “solubility change mitosis (log2)” value is -0.0859.
With “MLSRSRCVSRAFSRSLSAFQKGNCPLGRRSLPGVSLCQGPGYPNSRKVVINNSVFSVRFFRTTAVCKDDLVTVKTPAFAESVTEGDVRWEKAVGDTVAEDEVVCEIETDKTSVQVPSPANGVIEALLVPDGGKVEGGTPLFTLRKTGAAPAKAKPAEAPAAAAPKAEPTAAAVPPPAAPIPTQMPPVPSPSQPPSGKPVSAVKPTVAPPLAEPGAGKGLRSEHREKMNRMRQRIAQRLKEAQNTCAMLTTFNEIDMSNIQEMRARHKEAFLKKHNLKLGFMSAFVKASAFALQEQPVVNAVIDDTTKEVVYRDYIDISVAVATPRGLVVPVIRNVEAMNFADIERTITELGEKARKNELAIEDMDGGTFTISNGGVFGSLFGTPIINPPQSAILGMHGIFDRPVAIGGKVEVRPMMYVALTYDHRLIDGREAVTFLRKIKAAVEDPRVLLLDL [DLST]”, the “solubility in G1/S (log2)” value in the series with HeLa Kyoto [1] was 0.0922. In addition, the thermal stability score in the series with HeLa Kyoto [2] (setting [5]) is -2.5; in the series on HeLa Kyoto [2] (cell cycle stage: mitosis) it was -3.04. In addition, the melting temperature in the series with HeLa Kyoto [3] (cell cycle stage: G1/S) was 61.7 °C; with HeLa Kyoto [3] (cell cycle stage: mitosis) it was 65.9 °C. The “solubility change mitosis (log2)” value in the series with HeLa Kyoto [4] was -0.0493.
Consider “MTCYRGFLLGSCCRVAGGRAAALRGPGAGGPAARPRLGGDGGGRRHLGQGQPRELAGCGSRADGGFRPSRVVVVAKTTRYEFEQQRYRYAELSEEDLKQLLALKGSSYSGLLERHHIHTKNVEHIIDSLRNEGIEVRLVKRREYDEETVRWADAVIAAGGDGTMLLAASKVLDRLKPVIGVNTDPERSEGHLCLPVRYTHSFPEALQKFYRGEFRWLWRQRIRLYLEGTGINPVPVDLHEQQLSLNQHNRALNIERAHDERSEASGPQLLPVRALNEVFIGESLSSRASYYEISVDDGPWEKQKSSGLNLCTGTGSKAWSFNINRVATQAVEDVLNIAKRQGNLSLPLNRELVEKVTNEYNESLLYSPEEPKILFSIREPIANRVFSSSRQRCFSSKVCVRSRCWDACMVVDGGTSFEFNDGAIASMMINKEDELRTVLLEQ [NADK2]”, for which the “solubility in G1/S (log2)” value with HeLa Kyoto [1] is 0.0487. Moreover, the thermal stability score in the series with HeLa Kyoto [2] (setting [5]) is -0.37; with HeLa Kyoto [2] (cell cycle stage: mitosis), 2.77. Also, the melting temperature came to 55.3 °C in the series on HeLa Kyoto [3] (cell cycle stage: G1/S) and 55.5 °C with HeLa Kyoto [3] (cell cycle stage: mitosis). Moreover, the “solubility change mitosis (log2)” value with HeLa Kyoto [4] is -0.121.
For “MSGQSLTDRITAAQHSVTGSAVSKTVCKATTHEIMGPKKKHLDYLIQCTNEMNVNIPQLADSLFERTTNSSWVVVFKSLITTHHLMVYGNERFIQYLASRNTLFNLSNFLDKSGLQGYDMSTFIRRYSRYLNEKAVSYRQVAFDFTKVKRGADGVMRTMNTEKLLKTVPIIQNQMDALLDFNVNSNELTNGVINAAFMLLFKDAIRLFAAYNEGIINLLEKYFDMKKNQCKEGLDIYKKFLTRMTRISEFLKVAEQVGIDRGDIPDLSQAPSSLLDALEQHLASLEGKKIKDSTAASRATTLSNAVSSLASTGLSLTKVDEREKQAALEEEQARLKALKEQRLKELAKKPHTSLTTAASPVSTSAGGIMTAPAIDIFSTPSSSNSTSKLPNDLLDLQQPTFHPSVHPMSTASQVASTWGDPFSATVDAVDDAIPSLNPFLTKSSGDVHLSISSDVSTFTTRTPTHEMFVGFTPSPVAQPHPSAGLNVDFESVFGNKSTNVIVDSGGFDELGGLLKPTVASQNQNLPVAKLPPSKLVSDDLDSSLANLVGNLGIGNGTTKNDVNWSQPGEKKLTGGSNWQPKVAPTTAWNAATMAPPVMAYPATTPTGMIGYGIPPQMGSVPVMTQPTLIYSQPVMRPPNPFGPVSGAQIQFM [PICALM]”, in the series on HeLa Kyoto [1], the “solubility in G1/S (log2)” value was determined as 0.0523. Moreover, the thermal stability score with HeLa Kyoto [2] (setting [5]) is -1.28; with HeLa Kyoto [2] (cell cycle stage: mitosis), -1.63. Moreover, the melting temperature in the series with HeLa Kyoto [3] (cell cycle stage: G1/S) was 53.7 °C; with HeLa Kyoto [3] (cell cycle stage: mitosis), 53.1 °C. For the same sequence, the “solubility change mitosis (log2)” value with HeLa Kyoto [4] is -0.0327.

The values are drawn from the supplement of paper PMC5998384.
